This is an account of results in PMC10185811 (2023).

For experiment [1], the target named is T1, His6-RPN1 WT (human, UniProt Q13200 1-908). The experiment in a line: BLI.
The target of experiment [2] is T1, His6-RPN1 WT. Nature of the experiment: BLI; NUB1L pre-bound to GST-FAT10; unit inferred, M assumed. Background: In BLI a coated tip is dipped into the sample, and binding shifts an interference pattern.
In experiment [3] the target is T1, His6-RPN1 WT. The experiment in a line: BLI; in presence of GST; unit inferred, M assumed.

T1 sequence (Q13200 whole entry): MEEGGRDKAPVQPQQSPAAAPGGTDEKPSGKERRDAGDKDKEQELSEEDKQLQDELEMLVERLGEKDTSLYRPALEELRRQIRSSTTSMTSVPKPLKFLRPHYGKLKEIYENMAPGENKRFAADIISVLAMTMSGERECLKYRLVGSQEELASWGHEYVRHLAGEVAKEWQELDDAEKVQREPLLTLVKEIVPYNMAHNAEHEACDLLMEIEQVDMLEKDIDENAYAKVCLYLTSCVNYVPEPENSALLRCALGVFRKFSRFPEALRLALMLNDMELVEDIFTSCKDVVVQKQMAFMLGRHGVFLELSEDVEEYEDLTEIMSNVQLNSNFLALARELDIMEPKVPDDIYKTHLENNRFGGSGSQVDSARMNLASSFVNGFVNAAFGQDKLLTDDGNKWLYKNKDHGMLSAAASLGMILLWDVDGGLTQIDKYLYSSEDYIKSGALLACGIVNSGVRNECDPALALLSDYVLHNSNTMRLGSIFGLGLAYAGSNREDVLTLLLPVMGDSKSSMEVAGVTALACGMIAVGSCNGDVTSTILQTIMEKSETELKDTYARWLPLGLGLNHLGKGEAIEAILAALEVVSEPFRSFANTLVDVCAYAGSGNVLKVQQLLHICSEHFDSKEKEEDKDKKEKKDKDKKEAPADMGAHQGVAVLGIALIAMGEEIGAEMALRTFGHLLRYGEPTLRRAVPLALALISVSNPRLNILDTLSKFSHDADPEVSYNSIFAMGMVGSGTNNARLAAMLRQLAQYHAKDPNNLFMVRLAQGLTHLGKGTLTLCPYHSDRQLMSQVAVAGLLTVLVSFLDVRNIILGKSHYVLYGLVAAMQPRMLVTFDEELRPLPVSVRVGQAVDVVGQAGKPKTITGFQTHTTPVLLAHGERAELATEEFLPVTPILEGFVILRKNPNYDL

B1: GST-FAT10 (natural protein)
chain: MAPNASCLCVHVRSEEWDLMTFDANPYDSVKKIKEHVRSKTKVPVQDQVLLLGSKILKPRRSLSSYGIDKEKTIHLTLKVVKPSDEELPLFLVESGDEAKRHLLQVRRSSSVAQVKAMIETKTGIIPETQIVTCNGKRLEDGKMMADYGIRKGNLLFLACYCIGG
The molecule B1 showed a Kd with His6-RPN1 WT [1] of 4.04 mM.

B2: NUB1L-bound GST-FAT10 (NUB1L co-incubated with GST-FAT10) (complex)
chain 1: MAQKKYLQAKLTQFLREDRIQLWKPPYTDENKKVGLALKDLAKQYSDRLECCENEVEKVIEEIRCKAIERGTGNDNYRTTGIATIEVFLPPRLKKDRKNLLETRLHITGRELRSKIAETFGLQENYIKIVINKKQLQLGKTLEEQGVAHNVKAMVLELKQSEEDARKNFQLEEEEQNEAKLKEKQIQRTKRGLEILAKRAAETVVDPEMTPYLDIANQTGRSIRIPPSERKALMLAMGYHEKGRAFLKRKEYGIALPCLLDADKYFCECCRELLDTVDNYAVLQLDIVWCYFRLEQLECLDDAEKKLNLAQKCFKNCYGENHQRLVHIKGNCGKEKVLFLRLYLLQGIRNYHSGNDVEAYEYLNKARQLFKELYIDPSKVDNLLQLGFTAQEARLGLRACDGNVDHAATHITNRREELAQIRKEEKEKKRRRLENIRFLKGMGYSTHAAQQVLHAASGNLDEALKILLSNPQMWWLNDSNPETDNRQESPSQENIDRLVYMGFDALVAEAALRVFRGNVQLAAQTLAHNGGSLPPELPLSPEDSLSPPATSPSDSAGTSSASTDEDMETEAVNEILEDIPEHEEDYLDSTLEDEEIIIAEYLSYVENRKSATKKN
chain 2: B1 chain
As for B2, binding with His6-RPN1 WT [2] was put at a Kd of 432 nM.

B3: NUB1L (NEDD8 ultimate buster 1 long), tagless (natural protein)
chain: B2 chain 1
Turning to B3, the Kd was determined as 0.00171 mM with His6-RPN1 WT [1] and 1560 nM with His6-RPN1 WT [3].

The Kd is the free concentration of one partner at which half of the binding sites on the other are occupied at equilibrium, for simple one-to-one binding.
